Data from US20260234247A1 (published 2026).
Residue numbers refer to the chain shown, from its start.

B1: LK-RB2-5 (antibody, human IgG4 S228P, kappa, V domains shown)
VH: QIQLVQSGPELKKPGETVKISCKASGYTFTTYGMSWVKQAPGKGLKWMGWINTYSGVPTYADDFKGRFAFSLETSVSTAYLQINNLKNEDTATYFCARRDGYDGGGNFDYWGQGTTLTVSS
VL: DIVMTQSPATLSVTPGDRVSLSCRASQSISDYLHWYQQKSHESPRLLIKYASQSISGIPSRFSGSGSGSDFTLSINSVEPEDVGVYYCQNGHGFPWTFGGGTKLEIKR
B2: LK-RB2-24 (antibody, human IgG4 S228P, kappa, V domains shown)
VH: QIQLVQSGPEVKKPGETVKISCKASGYTFTTYGMSWVKQAPGKGLKWMGWLNIYSGVPAYADDFKGRFAFSLESSASTAYLQINNLKNEDTATYFCARRENYDGYGMDYWGQGTSVTVSS
VL: B1 VL with G93S, W96Y
B3: LK-RB2-45 (antibody, human IgG4 S228P, kappa, V domains shown)
VH: QIQLVQSGPELKKPGETVKISCKASGYTFTTYGMSWVKQTPGKGLQWMGWINVYSGVPTYADDFKGRFAFSLEASASTAYLQINNLKNEDTASYFCARRGDYDGHYFDYWGQGTTLTVSS
VL: B1 VL with H34N, A51V, V83I, G93N, W96L, I106L
B4: LK-RB2-24.h2 (antibody, human IgG4, kappa, V domains shown)
VH: QVQLVQSGSELKKPGASVKVSCKASGYTFTTYGMSWVKQAPGQGLKWMGWLNIYSGVPAYADDFKGRFVFSLDTSASTAYLQISSLKAEDTAVYFCARRENYDGYGMDYWGQGTLVTVSS
VL: EIVLTQSPATLSLSPGERATLSCRASQSISDYLHWYQQKPGQAPRLLIKYASQSISGIPSRFSGSGSGTDFTLTISSLEPEDFAVYYCQNGHSFPYTFGGGTKLEIKR
notes: Humanized form of LK-RB2-24
B5: LK-RB2-24.h3 (antibody, human IgG4, kappa, V domains shown)
VH: B4 VH
VL: B4 VL with F83V
notes: Humanized form of LK-RB2-24
B6: LK-RB2-24.h1 (antibody, human IgG4, kappa, V domains shown)
VH: B4 VH
VL: B4 VL with S60A
notes: Humanized form of LK-RB2-24
B7: 3C1 (antibody, human IgG4, kappa, V domains shown)
VH: EVQLVESGGGLVQPGGSLRLSCAASGFTFSDYDMHWVRQATGKGLEWVATIDTAGDTYYPDSVRGRFTISRENAKNSLSLQMNSLRAGDTAVYFCARDVPGTGFDHWGQGTLVTVSS
VL: SSELTQDPAVSVALGQTVRITCQGDSLRSYYESWYQQKPGQAPVLVIYGKNNRPSGIPDRFSGSISGNTASLTITGTQAEDEADYYCNSRDNSGDHWVFGGGTRLTVLG
B8: LK-RB2-8 (antibody, human IgG4 S228P, kappa, V domains shown)
VH: QIQLVQSGPELKKPGETVKISCKASGYSFASYGMGWVKQAPGKGLKWLGWINTHSGVPTYADDFKGRFAFSLETSASTAYLQINNLKNEDTATYFCAHYGRPWFPYWGQGTLVTVSA
VL: DIQMTQSPASLSASVGETVTITCRTSENIYSYLAWYQQKQGKSPQLLVYNAKSLAEGVPSRFSGSGSGTQFSLRINSLQPEDFGTYYCQQHYETPLTFGAGTKLELKR
B9: LK-RB2-16 (antibody, human IgG4 S228P, kappa, V domains shown)
VH: B8 VH with S28T, A30T, S31T, G42E, L48M, H54N, V57A, A61G, P105A
VL: B8 VL with T25A, Q37H, K42E, S53T, R74K, T85S, Q90H, E93N, T94I
B10: LK-RB2-16 (antibody, human IgG4 S228P, kappa, V domains shown)
VH: B8 VH with S28T, A30T, S31T, G42E, L48M, H54N, V57A, A61G, P105A
VL: B8 VL with T25A, Q37H, K42E, S53T, R74K, T85S, Q90H, E93N, T94I
B11: LK-RB2-8 (antibody, human IgG4 S228P, kappa, V domains shown)
VH: B8 VH
VL: B8 VL
B12: 15G8 (antibody, human IgG4 S228P, kappa, V domains shown)
VH: DVQLQGSGPGLVKPSETLSLTCSVTGYSITSGYYWNWIRQFPGKKLEWMGYISYDGSNNYNPSLKNRITISRDTSKNQFSLKLNSVTAADTATYYCAHGYSYYYAMDAWGQGTSVTVSS
VL: DIQMTQSPSSLSASVGDRVTITCRTSQDISNYLNWYQQKPGKAVKLLISYTSRLHSGVPSRFSGSGSGTDYTLTISSLQPEDFATYYCQQGNTLPTFGQGTKLEIKR
B13: LK-RB1-59 (antibody, human IgG4 S228P, kappa, V domains shown)
VH: QIQLVQSGPELKKPGETVKISCKASGYTFTTYGMSWVKQAPGKGLKWMGWINTYSGVPTYADDFKGRFAFSLETSASTAYLQINNLKNEDTATYFCARRRIYYGNKGYAMDYWGQGTSVTVSS
VL: DIQMTQSPASLSVSVGETVTITCRASENIYSNLVWYQQKQGKSPQLLVYTATNLADGVPSRFSGSGSGTQFSLKINSLQSEDFGSYYCQHFWGTPWTFGGGTKLEIKR
B14: 12D12 (antibody, human IgG4 S228P, kappa, V domains shown)
VH: QVQLQQPGAELVKPGASVRMSCKASGYTFTSYWVHWVKQRPGQGLEWIGVIDPSDSYTSYNQNFKGKATLTVDTSSKTAYIHLSSLTSEDSAVYFCARGERYDGDYFAMDYWGQGTSVTVSS
VL: B13 VL with Q3V, V34A, T50A, G66R, F71Y, S85T, G93N, W96R
B15: LK-RB2-2.h1 (antibody, human IgG4, kappa, V domains shown)
VH: EVQLVESGGGLVKPGGSLRLSCAASGFTFSSYAMSWVRQAPGKGLEWVSYISSGGDYFHYADTVKGRFTISRDNAKNSLYLQMNSLRAEDTAVYYCAREGAHYDSSYLAWFAHWGQGTLVTVSS
VL: DIQMTQSPSSVSASVGDRVTITCRASENIYSNLAWYQQKPGKAPKLLIYAATNLAEGVPSRFSGSGSGTDYTLTISSLQPEDFATYYCQQFWDNPLTFGQGTKLEIKR
notes: Humanized form of LK-RB2-2
B16: LK-RB2-2.h3 (antibody, human IgG4, kappa, V domains shown)
VH: B15 VH with S49A, A97T
VL: B15 VL
notes: Humanized form of LK-RB2-2
B17: LK-RB2-2.h2 (antibody, human IgG4, kappa, V domains shown)
VH: B15 VH
VL: B15 VL with I48V
notes: Humanized form of LK-RB2-2
B18: LK-RB1-39 (antibody, human IgG4 S228P, kappa, V domains shown)
VH: EVQLQQSGAELVRPGASVKLSCTASGFNIKDDYVHWVNQRPEQGLEWIGWIDPENGDTGYASKFQDKATITADTSSNTAYLHLSSLTSEDTAVYYCTTTRWTGSYWGQGTTLTVSS
VL: QIVLTQSPAIMSASPGEKVTITCSASSSVNYMHWFQQKPGSSPKLWIYSTANLASGVPARFSGSGSGTSYSLTISRMEAEDAATYYCQQRSSYPPTWTFGGGTKLEIKR
B19: LK-RB2-12 (antibody, human IgG4 S228P, kappa, V domains shown)
VH: B3 VH with Q46K, V53I, A69V, A74I, Y80H, S93T, G100K, D103S, Y106C
VL: DIVLTQSPASLAVSPGQRATISCRASESVDTYGISFMHWYQQKPGQPPKLLIYRASNLESGIPARFSGSGSRTDFTLTINPVETDDVAIYYCQQSKKDPYTFGGGTKLEIKR

How the values were obtained:
[1] = biological target: T1, human LILRB1 expressed on CHOK1 cells (CHOK1-hLILRB1) (human, UniProt Q8NHL6 24-650); assay: cell based RBA, flow cytometry: blocking of HLA-G binding to CHOK1-hLILRB1 cells
T1 construct: whole, on cells; also called CHOK1-LILRB1
T1 sequence (Q8NHL6 24-650): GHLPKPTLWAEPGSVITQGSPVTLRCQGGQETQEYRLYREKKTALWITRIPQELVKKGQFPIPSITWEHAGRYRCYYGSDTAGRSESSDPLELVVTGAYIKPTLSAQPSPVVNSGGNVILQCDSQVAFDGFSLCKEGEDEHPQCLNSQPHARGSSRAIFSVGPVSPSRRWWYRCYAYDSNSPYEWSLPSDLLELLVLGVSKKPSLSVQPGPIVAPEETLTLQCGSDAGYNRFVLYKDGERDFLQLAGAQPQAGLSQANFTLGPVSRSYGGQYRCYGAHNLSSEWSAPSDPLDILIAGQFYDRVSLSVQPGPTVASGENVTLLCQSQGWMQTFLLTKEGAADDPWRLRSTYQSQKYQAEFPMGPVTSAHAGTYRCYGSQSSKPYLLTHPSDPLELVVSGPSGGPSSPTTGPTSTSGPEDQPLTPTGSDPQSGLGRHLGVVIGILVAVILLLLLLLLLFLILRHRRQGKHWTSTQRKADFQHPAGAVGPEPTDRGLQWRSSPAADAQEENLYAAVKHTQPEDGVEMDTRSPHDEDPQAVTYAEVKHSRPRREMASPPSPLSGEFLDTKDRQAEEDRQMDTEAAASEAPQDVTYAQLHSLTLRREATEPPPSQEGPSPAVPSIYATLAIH

[2] = biological target: T2, human LILRB2 expressed on CHOK1 cells (CHOK1-hLILRB2) (human, UniProt Q8N423 22-597); assay: FACS binding to CHOK1-hLILRB2 cells
T2 construct: whole, on cells; also called CHOK1-LILRB2
T2 sequence (Q8N423 22-597): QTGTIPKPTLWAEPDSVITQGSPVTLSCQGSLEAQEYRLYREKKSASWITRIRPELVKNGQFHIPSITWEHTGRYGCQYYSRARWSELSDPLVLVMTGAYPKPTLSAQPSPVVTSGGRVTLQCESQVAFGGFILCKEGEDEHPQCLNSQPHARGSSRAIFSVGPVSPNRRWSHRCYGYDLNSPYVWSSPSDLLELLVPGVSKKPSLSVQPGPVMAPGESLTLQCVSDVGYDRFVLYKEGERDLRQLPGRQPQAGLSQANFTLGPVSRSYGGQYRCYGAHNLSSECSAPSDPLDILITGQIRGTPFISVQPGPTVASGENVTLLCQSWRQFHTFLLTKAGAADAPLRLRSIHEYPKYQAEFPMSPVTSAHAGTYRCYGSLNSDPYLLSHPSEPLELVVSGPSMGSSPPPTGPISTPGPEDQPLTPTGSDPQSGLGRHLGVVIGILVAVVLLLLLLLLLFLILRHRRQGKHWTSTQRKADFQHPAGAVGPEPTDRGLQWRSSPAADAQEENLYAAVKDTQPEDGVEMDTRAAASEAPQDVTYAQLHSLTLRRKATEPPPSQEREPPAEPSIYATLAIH

[3] = biological target: T1, human LILRB1 expressed on CHOK1 cells …; assay: FACS binding to CHOK1-hLILRB1 cells
[4] = biological target: T3, human LILRB1 (human, UniProt Q8NHL6 24-458, limits assumed); assay: Octet off-rate ranking;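 also: antibody dissociation rate constants against cynomolgus LILRB2 plus human LILRB1, LILRB2, LILRA1 and LILRA2, measured on an Octet instrument to rank binding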
T3 construct: also called hLILRB1
T3 sequence (Q8NHL6 24-458 limits assumed): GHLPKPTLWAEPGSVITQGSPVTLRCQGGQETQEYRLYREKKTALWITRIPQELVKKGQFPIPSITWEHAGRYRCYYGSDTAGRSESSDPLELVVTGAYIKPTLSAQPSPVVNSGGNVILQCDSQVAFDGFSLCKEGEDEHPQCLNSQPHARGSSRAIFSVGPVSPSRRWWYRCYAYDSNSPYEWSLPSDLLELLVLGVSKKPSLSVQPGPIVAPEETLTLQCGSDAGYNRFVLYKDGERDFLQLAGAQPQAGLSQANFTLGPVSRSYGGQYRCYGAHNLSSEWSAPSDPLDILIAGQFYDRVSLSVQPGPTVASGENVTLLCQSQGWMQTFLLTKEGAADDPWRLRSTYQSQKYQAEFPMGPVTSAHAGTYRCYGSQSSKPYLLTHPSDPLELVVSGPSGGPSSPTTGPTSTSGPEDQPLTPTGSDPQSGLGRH
Text: (§1) Binding affinity of anti-LILRB1 and anti-LILRB2 antibodies against human LILRB1, LILRB2, LILRA1, LILRA2 and cynomolgus LILRB2 was ranked by measuring dissociation rate constant (Kdis) using the Octet system.

[5] = biological target: T4, human LILRB2 (human, UniProt Q8N423 22-460, limits assumed); assay: Octet off-rate ranking;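 also: antibody dissociation rate constants against cynomolgus LILRB2 plus human LILRB1, LILRB2, LILRA1 and LILRA2, measured on an Octet instrument to rank binding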
T4 construct: also called hLILRB2
T4 sequence (Q8N423 22-460 limits assumed): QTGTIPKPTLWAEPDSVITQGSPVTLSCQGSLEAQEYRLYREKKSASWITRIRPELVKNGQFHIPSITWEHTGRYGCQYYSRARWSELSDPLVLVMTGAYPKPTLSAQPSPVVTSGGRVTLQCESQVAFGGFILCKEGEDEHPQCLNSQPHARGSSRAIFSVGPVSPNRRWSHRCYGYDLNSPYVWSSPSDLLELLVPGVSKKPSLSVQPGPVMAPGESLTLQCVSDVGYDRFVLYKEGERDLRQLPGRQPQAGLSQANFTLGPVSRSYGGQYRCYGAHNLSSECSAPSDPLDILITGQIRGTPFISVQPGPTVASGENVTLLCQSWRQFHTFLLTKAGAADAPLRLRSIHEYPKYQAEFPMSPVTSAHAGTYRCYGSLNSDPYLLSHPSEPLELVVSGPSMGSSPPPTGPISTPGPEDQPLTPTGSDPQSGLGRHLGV
Text: as §1

[6] = biological target: T5, human LILRB1-his (human, UniProt Q8NHL6 24-458, limits assumed); assay: SPR (Biacore 8K), antibody captured via Fc, LILRB1-his as analyte, 1:1 model
T5 construct: Analyte of the Biacore run; not shown: His tag
T5 sequence (Q8NHL6 24-458 limits assumed): as the sequence (Q8NHL6 24-458 limits assumed) above

[7] = biological target: T6, human LILRB2-his (human, UniProt Q8N423 22-460, limits assumed); assay: SPR (Biacore 8K), antibody captured via Fc, LILRB2-his as analyte, 1:1 model
T6 construct: Analyte of the Biacore run; not shown: His tag
T6 sequence (Q8N423 22-460 limits assumed): as the sequence (Q8N423 22-460 limits assumed) above

Binder	EC50 [1] [nM]	Top Inhibition [1] [%]	EC50 [3] [nM]	Kd [7] [nM]	koff [7] [s⁻¹]	kon [7] [M⁻¹ s⁻¹]	also measured
B1	2.86	70.8	1.34	–	–	–	EC50 [2]: 0.27 nM
B2	–	–	–	–	–	–	koff [4]: 0.000205 s⁻¹; koff [5]: 0.000244 s⁻¹
B3	–	–	–	–	–	–	koff [5]: 8.84e-05 s⁻¹
B4	–	–	–	1.01	0.000871	860000	Kd [6]: 31.6 nM; koff [6]: 0.00582 s⁻¹; kon [6]: 184000 M⁻¹ s⁻¹
B5	–	–	–	0.852	0.000638	749000	Kd [6]: 20.1 nM; koff [6]: 0.00335 s⁻¹; kon [6]: 167000 M⁻¹ s⁻¹
B6	–	–	–	0.836	0.000758	907000	Kd [6]: 25.1 nM; koff [6]: 0.00446 s⁻¹; kon [6]: 177000 M⁻¹ s⁻¹
B7	0.94	79.6	0.62	–	–	–	binding result [2]: no binding
B8	1.32	32.7	4.55	–	–	–	EC50 [2]: 7.23 nM
B9	–	–	–	–	–	–	koff [4]: 0.000238 s⁻¹; koff [5]: 5.5e-05 s⁻¹
B10	13.4	35.3	4.3	–	–	–	EC50 [2]: 6.01 nM
B11	–	–	–	–	–	–	koff [4]: 4.85e-05 s⁻¹; koff [5]: 1e-07 s⁻¹
B12	0.69	82.5	0.57	–	–	–	binding result [2]: no binding
B13	1.61	87.3	0.65	–	–	–	binding result [2]: no binding
B14	1.26	89.1	–	–	–	–	binding result [2]: no binding
B15	–	–	–	0.161	0.000123	766000	–
B16	–	–	–	0.201	0.000129	642000	–
B17	–	–	–	0.208	0.00014	673000	–
B18	–	–	–	–	–	–	koff [4]: 4.64e-05 s⁻¹; koff [5]: 0.00153 s⁻¹
B19	2.16	70.3	2.34	–	–	–	EC50 [2]: 0.16 nM
